Experimental data published in patent US20250049970A1, “DLL3 TARGETING PEPTIDES AND CONSTRUCTS THEREOF” (MARIANA ONCOLOGY INC., priority 2023, published 2025).
Bridges are numbered along the chain shown (N, C = ends). [ ]: non-standard residue; d: D form. The star is where a group is joined. DOTA = O=C(O)CN1CCN(CC(=O)O)CCN(CC(=O)*)CCN(CC(=O)O)CC1

B1: SEQ ID NO 70 (peptide)
peptide: Ac-MWKICSDWQNCWP-NH2
modifications: disulfide 5-11
SMILES: CC[C@H](C)[C@H](NC(=O)[C@H](CCCCN)NC(=O)[C@H](Cc1c[nH]c2ccccc12)NC(=O)[C@H](CCSC)NC(C)=O)C(=O)N[C@H]1CSSC[C@@H](C(=O)N[C@@H](Cc2c[nH]c3ccccc23)C(=O)N2CCC[C@H]2C(N)=O)NC(=O)[C@H](CC(N)=O)NC(=O)[C@H](CCC(N)=O)NC(=O)[C@H](Cc2c[nH]c3ccccc23)NC(=O)[C@H](CC(=O)O)NC(=O)[C@H](CO)NC1=O
B2: SEQ ID NO 79 (peptide)
peptide: Ac-MSDCWLQWNCPFD-NH2
modifications: disulfide 4-10
SMILES: CSCC[C@H](NC(C)=O)C(=O)N[C@@H](CO)C(=O)N[C@@H](CC(=O)O)C(=O)N[C@H]1CSSC[C@@H](C(=O)N2CCC[C@H]2C(=O)N[C@@H](Cc2ccccc2)C(=O)N[C@@H](CC(=O)O)C(N)=O)NC(=O)[C@H](CC(N)=O)NC(=O)[C@H](Cc2c[nH]c3ccccc23)NC(=O)[C@H](CCC(N)=O)NC(=O)[C@H](CC(C)C)NC(=O)[C@H](Cc2c[nH]c3ccccc23)NC1=O
B3: SEQ ID NO 67 (peptide)
peptide: Ac-MWTICADWAQCWP-NH2
modifications: disulfide 5-11
SMILES: CC[C@H](C)[C@H](NC(=O)[C@@H](NC(=O)[C@H](Cc1c[nH]c2ccccc12)NC(=O)[C@H](CCSC)NC(C)=O)[C@@H](C)O)C(=O)N[C@H]1CSSC[C@@H](C(=O)N[C@@H](Cc2c[nH]c3ccccc23)C(=O)N2CCC[C@H]2C(N)=O)NC(=O)[C@H](CCC(N)=O)NC(=O)[C@H](C)NC(=O)[C@H](Cc2c[nH]c3ccccc23)NC(=O)[C@H](CC(=O)O)NC(=O)[C@H](C)NC1=O
B4: SEQ ID NO 78 (peptide)
peptide: Ac-MVWVPCEWDDCFY-NH2
modifications: disulfide 6-11
SMILES: CSCC[C@H](NC(C)=O)C(=O)N[C@H](C(=O)N[C@@H](Cc1c[nH]c2ccccc12)C(=O)N[C@H](C(=O)N1CCC[C@H]1C(=O)N[C@H]1CSSC[C@@H](C(=O)N[C@@H](Cc2ccccc2)C(=O)N[C@@H](Cc2ccc(O)cc2)C(N)=O)NC(=O)[C@H](CC(=O)O)NC(=O)[C@H](CC(=O)O)NC(=O)[C@H](Cc2c[nH]c3ccccc23)NC(=O)[C@H](CCC(=O)O)NC1=O)C(C)C)C(C)C
B5: SEQ ID NO 71 (peptide)
peptide: Ac-MWHICQEWATCWP-NH2
modifications: disulfide 5-11
SMILES: CC[C@H](C)[C@H](NC(=O)[C@H](Cc1c[nH]cn1)NC(=O)[C@H](Cc1c[nH]c2ccccc12)NC(=O)[C@H](CCSC)NC(C)=O)C(=O)N[C@H]1CSSC[C@@H](C(=O)N[C@@H](Cc2c[nH]c3ccccc23)C(=O)N2CCC[C@H]2C(N)=O)NC(=O)[C@H]([C@@H](C)O)NC(=O)[C@H](C)NC(=O)[C@H](Cc2c[nH]c3ccccc23)NC(=O)[C@H](CCC(=O)O)NC(=O)[C@H](CCC(N)=O)NC1=O
B6: SEQ ID NO 89 (peptide)
peptide: Ac-MWTICANWHDCWP-NH2
modifications: disulfide 5-11
SMILES: CC[C@H](C)[C@H](NC(=O)[C@@H](NC(=O)[C@H](Cc1c[nH]c2ccccc12)NC(=O)[C@H](CCSC)NC(C)=O)[C@@H](C)O)C(=O)N[C@H]1CSSC[C@@H](C(=O)N[C@@H](Cc2c[nH]c3ccccc23)C(=O)N2CCC[C@H]2C(N)=O)NC(=O)[C@H](CC(=O)O)NC(=O)[C@H](Cc2c[nH]cn2)NC(=O)[C@H](Cc2c[nH]c3ccccc23)NC(=O)[C@H](CC(N)=O)NC(=O)[C@H](C)NC1=O
B7: SEQ ID NO 86 (peptide)
peptide: Ac-AWTICNNWHDCWP-NH2
modifications: disulfide 5-11
SMILES: CC[C@H](C)[C@H](NC(=O)[C@@H](NC(=O)[C@H](Cc1c[nH]c2ccccc12)NC(=O)[C@H](C)NC(C)=O)[C@@H](C)O)C(=O)N[C@H]1CSSC[C@@H](C(=O)N[C@@H](Cc2c[nH]c3ccccc23)C(=O)N2CCC[C@H]2C(N)=O)NC(=O)[C@H](CC(=O)O)NC(=O)[C@H](Cc2c[nH]cn2)NC(=O)[C@H](Cc2c[nH]c3ccccc23)NC(=O)[C@H](CC(N)=O)NC(=O)[C@H](CC(N)=O)NC1=O
B8: SEQ ID NO 88 (peptide)
peptide: Ac-MWTACNNWHDCWP-NH2
modifications: disulfide 5-11
SMILES: CSCC[C@H](NC(C)=O)C(=O)N[C@@H](Cc1c[nH]c2ccccc12)C(=O)N[C@H](C(=O)N[C@@H](C)C(=O)N[C@H]1CSSC[C@@H](C(=O)N[C@@H](Cc2c[nH]c3ccccc23)C(=O)N2CCC[C@H]2C(N)=O)NC(=O)[C@H](CC(=O)O)NC(=O)[C@H](Cc2c[nH]cn2)NC(=O)[C@H](Cc2c[nH]c3ccccc23)NC(=O)[C@H](CC(N)=O)NC(=O)[C@H](CC(N)=O)NC1=O)[C@@H](C)O
B9: SEQ ID NO 84 (peptide)
peptide: Ac-MWTICNNWHDC[dA]P-NH2
modifications: disulfide 5-11
SMILES: CC[C@H](C)[C@H](NC(=O)[C@@H](NC(=O)[C@H](Cc1c[nH]c2ccccc12)NC(=O)[C@H](CCSC)NC(C)=O)[C@@H](C)O)C(=O)N[C@H]1CSSC[C@@H](C(=O)N[C@H](C)C(=O)N2CCC[C@H]2C(N)=O)NC(=O)[C@H](CC(=O)O)NC(=O)[C@H](Cc2c[nH]cn2)NC(=O)[C@H](Cc2c[nH]c3ccccc23)NC(=O)[C@H](CC(N)=O)NC(=O)[C@H](CC(N)=O)NC1=O
B10: SEQ ID NO 87 (peptide)
peptide: Ac-MWAICNNWHDCWP-NH2
modifications: disulfide 5-11
SMILES: CC[C@H](C)[C@H](NC(=O)[C@H](C)NC(=O)[C@H](Cc1c[nH]c2ccccc12)NC(=O)[C@H](CCSC)NC(C)=O)C(=O)N[C@H]1CSSC[C@@H](C(=O)N[C@@H](Cc2c[nH]c3ccccc23)C(=O)N2CCC[C@H]2C(N)=O)NC(=O)[C@H](CC(=O)O)NC(=O)[C@H](Cc2c[nH]cn2)NC(=O)[C@H](Cc2c[nH]c3ccccc23)NC(=O)[C@H](CC(N)=O)NC(=O)[C@H](CC(N)=O)NC1=O
B11: SEQ ID NO 83 (peptide)
peptide: Ac-MWTICNNWH[dA]CWP-NH2
modifications: disulfide 5-11
SMILES: CC[C@H](C)[C@H](NC(=O)[C@@H](NC(=O)[C@H](Cc1c[nH]c2ccccc12)NC(=O)[C@H](CCSC)NC(C)=O)[C@@H](C)O)C(=O)N[C@H]1CSSC[C@@H](C(=O)N[C@@H](Cc2c[nH]c3ccccc23)C(=O)N2CCC[C@H]2C(N)=O)NC(=O)[C@@H](C)NC(=O)[C@H](Cc2c[nH]cn2)NC(=O)[C@H](Cc2c[nH]c3ccccc23)NC(=O)[C@H](CC(N)=O)NC(=O)[C@H](CC(N)=O)NC1=O
B12: SEQ ID NO 81 (peptide)
peptide: Ac-[dA]WTICNNWHDCWP-NH2
modifications: disulfide 5-11
SMILES: CC[C@H](C)[C@H](NC(=O)[C@@H](NC(=O)[C@H](Cc1c[nH]c2ccccc12)NC(=O)[C@@H](C)NC(C)=O)[C@@H](C)O)C(=O)N[C@H]1CSSC[C@@H](C(=O)N[C@@H](Cc2c[nH]c3ccccc23)C(=O)N2CCC[C@H]2C(N)=O)NC(=O)[C@H](CC(=O)O)NC(=O)[C@H](Cc2c[nH]cn2)NC(=O)[C@H](Cc2c[nH]c3ccccc23)NC(=O)[C@H](CC(N)=O)NC(=O)[C@H](CC(N)=O)NC1=O
B13: SEQ ID NO 68 (peptide)
peptide: Ac-WTICADWAQCWP-NH2
modifications: disulfide 4-10
SMILES: CC[C@H](C)[C@H](NC(=O)[C@@H](NC(=O)[C@H](Cc1c[nH]c2ccccc12)NC(C)=O)[C@@H](C)O)C(=O)N[C@H]1CSSC[C@@H](C(=O)N[C@@H](Cc2c[nH]c3ccccc23)C(=O)N2CCC[C@H]2C(N)=O)NC(=O)[C@H](CCC(N)=O)NC(=O)[C@H](C)NC(=O)[C@H](Cc2c[nH]c3ccccc23)NC(=O)[C@H](CC(=O)O)NC(=O)[C@H](C)NC1=O
B14: SEQ ID NO 76 (peptide)
peptide: Ac-MDCNFFDCDAWTW-NH2
modifications: disulfide 3-8
SMILES: CSCC[C@H](NC(C)=O)C(=O)N[C@@H](CC(=O)O)C(=O)N[C@H]1CSSC[C@@H](C(=O)N[C@@H](CC(=O)O)C(=O)N[C@@H](C)C(=O)N[C@@H](Cc2c[nH]c3ccccc23)C(=O)N[C@H](C(=O)N[C@@H](Cc2c[nH]c3ccccc23)C(N)=O)[C@@H](C)O)NC(=O)[C@H](CC(=O)O)NC(=O)[C@H](Cc2ccccc2)NC(=O)[C@H](Cc2ccccc2)NC(=O)[C@H](CC(N)=O)NC1=O

biological target: T1, DLL3 (target ligand immobilized on a SA sensor chip via streptavidin capture) (Homo sapiens (Human), UniProt Q9NYJ7 27-492, limits assumed); test: SPR, Biacore S200, target ligand on SA chip, 25 C, 1:1 fit
T1 sequence: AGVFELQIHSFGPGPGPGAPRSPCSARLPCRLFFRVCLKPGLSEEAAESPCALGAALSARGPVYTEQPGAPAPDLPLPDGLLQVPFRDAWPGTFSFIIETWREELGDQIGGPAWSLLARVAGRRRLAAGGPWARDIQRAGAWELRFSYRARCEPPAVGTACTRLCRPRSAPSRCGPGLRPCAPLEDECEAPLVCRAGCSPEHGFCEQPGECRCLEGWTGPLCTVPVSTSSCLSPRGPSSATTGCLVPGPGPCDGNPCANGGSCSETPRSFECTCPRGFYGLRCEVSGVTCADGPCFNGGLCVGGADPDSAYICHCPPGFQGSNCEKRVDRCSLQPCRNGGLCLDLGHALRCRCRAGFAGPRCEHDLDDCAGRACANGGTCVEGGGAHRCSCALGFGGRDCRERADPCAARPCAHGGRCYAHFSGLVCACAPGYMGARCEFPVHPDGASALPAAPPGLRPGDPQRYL
Experimental: Target ligand was immobilized on a SA sensor chip via streptavidin capture. A reference surface was set up for nonspecific binding and refractive index changes. For analysis of the kinetics of interactions, varying concentrations of peptides were injected at a flow rate of 50 μL/minute using running buffer containing 20 mM phosphate buffer with 2.7 mM KCl, 137 mM NaCl and 0.05% Surfactant P20. Sensorgram curves were fitted with 1:1 binding model, and affinity and kinetic parameters were obtained using either Biacore S200 evaluation software 1.1.1 or Biacore Insight evaluation 4.0.

Binder	Kd
{DOTA}-WTICNNWHDCWP-NH2 (disulfide 4-10) [SEQ ID NO 80]	80 nM
B1	340 nM
B2	32 nM
B3	72 nM
B4	68 nM
B5	47 nM
Ac-MWTICNNWHDCWP-NH2 (disulfide 5-11) [SEQ ID NO 69]	12 nM
B6	8.1 nM
B7	7.6 nM
B8	86 nM
B9	240 nM
B10	53 nM
B11	320 nM
B12	6.5 nM
B13	6.1 nM
B14	290 nM
